Measurements reported in FireProtDB (doi:10.1021/bi047926u).
Values joined by “and” are separate entries in the source; they are usually repeats but may differ in a detail not shown here. Equal values may be shown once.

Details: Bacillus subtilis (strain 168); pH 7.2; Thermal; CD; TES-KOH 21 mM; KCl 4 mM; reversible: No; whole UniProt chain shown

B1: Manganese-dependent inorganic pyrophosphatase wild type, P37487 (protein)
chain: MEKILIFGHQNPDTDTICSAIAYADLKNKLGFNAEPVRLGQVNGETQYALDYFKQESPRLVETAANEVNGVILVDHNERQQSIKDIEEVQVLEVIDHHRIANFETAEPLYYRAEPVGCTATILNKMYKENNVKIEKEIAGLMLSAIISDSLLFKSPTCTDQDVAAAKELAEIAGVDAEEYGLNMLKAGADLSKKTVEELISLDAKEFTLGSKKVEIAQVNTVDIEDVKKRQAELEAVISKVVAEKNLDLFLLVITDILENDSLALAIGNEAAKVEKAFNVTLENNTALLKGVVSRKKQVVPVLTDAMAE
With B1 the Tm was 50 °C and 46 °C.
